Measured values reported in the supplement of paper PMC11865577.

Assays:
Assay in all cases: pull-down binding Z-score (relative to library population); higher = stronger binding
Details in all cases: RNA library: Library-2
[1] = tested on: TO-3-N3 (biotin conjugate)
Outline: (§1)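 To score binding, a beads-only signal was subtracted, barcoded replicate probes were averaged with the highest and lowest dropped, and the value was converted to a Z-score using the library mean and standard deviation. The input was 1 μg of Cy5- or Cy3-end-labelled RNA library, heat-folded in phosphate/NaCl/KCl buffer and mixed for 60 min at 25 °C with streptavidin beads carrying 100 pmol of biotin-conjugated small molecule. Bound RNA was eluted in hot SDS and hybridised to a DNA barcode microarray at 55.5 °C for 20 h.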

[2] = tested on: TO-3-N3-2 (biotin conjugate)
Outline: as §1

TO-N3 (biotin conjugate) = tested on: TO-N3 (biotin conjugate)
Outline: as §1

[3] = tested on: TO-N3-2 (biotin conjugate)
Outline: as §1

Sequence	pull-down binding Z-score [1]	pull-down binding Z-score [2]	pull-down binding Z-score (TO-N3 (biotin conjugate))	pull-down binding Z-score [3]
AGUGUUUGCCUAGGUUCUUUAAUCUACUCAACCGCU	-0.346	-0.219	-0.288	-0.432
AGUUCAAGAAAUUCAACU	-0.166	-0.224	-0.478	-0.672
AGUUCAAGAACUUUACUCUCCAAUUUUUCUUAUUGUUGCGGCAAUAGUGUUUAUAACACUUUGCUUCACACUCAAAAGAAAGACAGAAUGAUUGAACU	-0.889	-0.46	-1.27	-1.13
AGUUGCUUACUCUAAUAACU [DMSMaPseq_invitro_SARS-CoV-2_Motif_421]	-0.129	-0.314	-0.387	-0.822
AGUUGUGAUCAACU	-0.744	-0.728	-1.06	-1.24
AGUUUACGCCCUGACACACGUUAUGUGCUCAUGGAUGGCU	-0.721	-0.516	-0.719	-0.321
AGUUUUUGUACACAAUUAAACCGUGCUUUAACU	-0.534	-0.252	-0.618	-1.04
AUAAAAUAGAAGAAUUAUUCUAUUCUUAU	-0.26	-0.288	-0.62	-1.22
AUAAACCACCCAUUAGUUUUCCAUUGUGUGCUAAUGGACAAGUUUUUGGUUUAU	-0.734	-0.594	-1.34	-1.1
AUAAAGAAAUGUAUCUAAAGUUGCGUAGUGAUGUGCUAUUACCUCUUACGCAAUAUAAUAGAUACUUAGCUCUUUAU	-0.341	-0.197	-0.507	-0.61
AUAACAAUACUAGAUGGAAUUUCACAGUAUUCACUGAGACUCAUUGAUGCUAUGAUGUUCACAUCUGAUUUGGCUACUAACAAUCUAGUUGU	0.311	0.176	0.384	-0.351
AUAAGAAAGACAAUUCUUAU [DMSMaPseq_invitro_SARS-CoV-2_Motif_114]	-0.755	-0.3	-1.07	-1.45
AUAAUAAGAGGCUGGAUUUUUGGUACUACUUUAGAUUCGAAGACCCAGUCCCUACUUAUUGU	-0.735	-0.168	-0.881	-0.612
AUACCACUUAUGUACAAAGGACUUCCUUGGAAUGUAGUGCGUAU	-0.527	-0.319	-0.207	0.76
AUACCUGCACGUGCUCGUGUAGAGUGU	0.0809	-0.0175	-0.0676	-0.468
AUAGAUUAUGUACCACUAAAGUCUGCUACGUGUAUAACACGUUGCAAUUUAGGUGGUGCUGUCUGU	-0.766	-0.399	-1.01	-0.77
AUAUAACUUCUAAAGAAACUUUGUAU	-0.911	-0.347	-1.28	-1.1
AUAUGUUUACACCACUAAUUCAACCUAUUGGUGCUUUGGACAUAU [DMSMaPseq_invitro_SARS-CoV-2_Motif_171]	-0.425	-0.311	-0.635	-0.719
AUCAAGACUAUUCAACCAAGGGUUGAAAAGAAAAAGCUUGAU	-0.561	-0.241	-0.904	-1.25
AUCACUAGGUUUCAAACUUUACUUGCUUUACAUAGAAGUUAUUUGACUCCUGGUGAU	-0.735	-0.375	-0.884	-1.03
AUCCGAUUUACAGGAU	-0.684	-0.525	-0.894	-1.16
AUCUACAAUGAU [DMSMaPseq_invitro_SARS-CoV-2_Motif_243]	-0.553	-0.742	-0.892	-1.55
AUCUGAAUUCUUCUAGAGUUCCUGAU	0.655	-0.168	0.466	-0.858

Sequence	pull-down binding Z-score [1]	pull-down binding Z-score [2]	pull-down binding Z-score (TO-N3 (biotin conjugate))	pull-down binding Z-score [3]
AUCUUAGGGAAUUUGUGUUUAAGAAUAUUGAUGGUUAUUUUAAAAUAUAUUCUAAGCACACGCCUAUUAAUUUAGUGCGUGAUCUCCCUCAGGGU	-0.775	-0.113	-0.897	-0.222
AUCUUCUGCAGGCUGCUUACGGUUUCGUCCGUGUUGCAGCCGAUCAUCAGCACAUCUAGGUUUUGUCCGGGUGUGACCGAAAGGUAAGAU [DMSMaPseq_invitro_SARS-CoV-2_Multi_2_ComplexLevel_1]	-0.599	-0.451	-1.06	-0.919
AUCUUUCUGUGCUUUUGCUGUAGAUGCUGCUAAAGCUUACAAAGAU	0.238	0.0938	0.0426	-0.263
AUGAACCACAAAUCAU [DMSMaPseq_invitro_SARS-CoV-2_Motif_444]	0.463	-0.31	0.254	-1.03
AUGAAUCUCUCAU [SHAPE_invivo_SARS-CoV-2_Motif_473]	-0.104	-0.347	-0.427	-0.958
AUGAGAAGUGCUCUGCCUAUACAGUUGAACUCGGUACAGAAGUAAAUGAGUUCGCCUGUGUUGUGGCAGAUGCUGUCAU [SHAPE_invitro_SARS-CoV-2_Motif_53]	-0.626	-0.278	0.461	2.07
AUGAGGUUUAGAAGAGCUUUUGGUGAAUACAGUCAUGUAGUUGCCUUUAAUACUUUACUAUUCCUUAU	-0.216	0.205	-0.296	-0.689
AUGAGUACGAACUUAUGUACUCAU	-0.0199	-0.43	-0.309	-1.18
AUGAUGUUUCUUUUUUAGCACAU	-0.696	-0.427	-1.09	-1.28
AUGCAUUCUGCAU [SHAPE_invivo_SARS-CoV-2_Motif_273]	-0.0791	-0.638	-0.142	-1.32
AUGCCAACUAUUUUCUUUGCUGGCAU	-0.81	-0.637	-1.36	-1.13
AUGCCUUUUUACCUUUUGCUAUGGGUAUUAUUGCUAUGUCUGCUUUUGCAAUGAUGUUUGUCAAACAUAAGCAUGCAU [DMSMaPseq_invitro_SARS-CoV-2_Multi_36_ComplexLevel_1]	0.159	0.472	0.0122	-0.261
AUGCUGACGAUGGUCAUUUUGUCAGCAU [IAV_invivo_M1_M2_7_Motif_18+IAV_invivo_M1_M2_7_Motif_18]	0.0275	0.337	-0.322	-0.84
AUGCUGUUACAGCGU	-0.973	-0.512	-1.35	-1.07
AUGCUUGGAACAGGAAGAGAAUCAGCAACUGUGUUGCUGAUUAUUCUGUCCUAUAUAAUUCCGCAU [DMSMaPseq_invitro_SARS-CoV-2_Motif_399]	-0.314	-0.327	-0.459	-0.139
AUGGCCCCGAUUUCAGCUAU [SHAPE_invivo_SARS-CoV-2_Motif_151]	-0.51	-0.281	-0.668	-0.0238
AUGGCUGAUCAAGCUAU [DMSMaPseq_invitro_SARS-CoV-2_Motif_216]	-0.238	-0.583	-0.208	-0.747
AUGGUAAGUGCGAUACUUACCUG [U1snRNP5ss-24]	-0.32	-0.139	-0.213	0.974
AUGGUCUUUGUUCUUUUUUUUGUAUGAAAAUGCCUUUUUACCUUUUGCUAUGGGUAUUAUUGCUAU	-0.455	0.135	-0.507	-0.569
AUGGUGCUAACAAAGACGGCAUCAU [SHAPE_invivo_SARS-CoV-2_Motif_545]	0.0674	-0.105	-0.143	-0.639
AUGGUUAUCUUACUUCUUCUUCUAAAACACCUGAAGAACAUUUUAUUGAAACCAU	-0.93	0.0544	-1.19	-1.01
AUGUACAUCUUCUUUGCAUCAUUUUAUUAUGUAUGGAAAAGUUAUGUGCAU	-1.16	-0.603	-1.36	-1.44
AUGUACUUGGAUUGGCUGCAAUCAUGCAAUUGUUUUUCAGCUAUUUUGCAGUACAU	-0.182	-0.577	-0.401	-0.271

Sequence	pull-down binding Z-score [1]	pull-down binding Z-score [2]	pull-down binding Z-score (TO-N3 (biotin conjugate))	pull-down binding Z-score [3]
AUGUCAUAUUGGAGUUGGACUGCAGGGCUUCCUUUACACAAUAAAUAUUGUAUGAAGUGCUGAUGUAACCUUUACUGCAGCAUGACAU [hsa-mir-3976]	0.131	-0.081	0.227	0.0127
AUGUUUGUCAAACAUAAGCAU [DMSMaPseq_invitro_SARS-CoV-2_Motif_200]	-0.651	-0.54	-0.873	-0.806
AUUACUGCAAAAUGGUAUGAAUGGACGUACCAUAUUGGGUAGU [DMSMaPseq_invitro_SARS-CoV-2_Motif_194]	0.151	0.144	0.0935	-0.151
AUUAGAGAAAACAACAGAGUUGUUAUUUCUAGU [DMSMaPseq_invitro_SARS-CoV-2_Motif_378]	0.0547	-0.0987	-0.17	-0.787
AUUAUGAGGACUUUUAAAGUUUCCAUUUGGAAUCUUGAUUACAUCAUAAACCUCAUAAU	-1.1	-0.377	-1.39	-1.25
AUUAUGUGUACCUUCCUUACCCAGAUCCAUCAAGAAUCCUAGGGGCCGGCUGUUUUGUAGAUGAUAUCGUAAAAACAGAUGGUACACUUAUGAU [DMSMaPseq_invitro_SARS-CoV-2_Multi_47_ComplexLevel_1]	-0.234	0.0322	0.0551	0.511
AUUCUAUUCUAUUCUAUUCU [r(AUUCU)4]	1.33	-0.0109	1.03	-0.629
AUUCUGAAGUUGUUCUUAAAAAGUUGAAGAAGUCUUUGAAU [DMSMaPseq_invitro_SARS-CoV-2_Motif_213]	-0.963	-0.324	-1.03	-0.353
AUUGACAUUAAUGGCAAUCUUCAUCCAGAUUCUGCCACUCUUGUUAGU [DMSMaPseq_invitro_SARS-CoV-2_Motif_73]	-0.785	-0.197	-0.723	-0.113
AUUGGCGACCCUGCUCAAU [DMSMaPseq_invitro_SARS-CoV-2_Motif_311]	0.191	-0.309	0.0933	-0.232
AUUGGUGCAGGUAUAUGCGCUAGU	-0.974	-0.674	-1.16	-0.926
AUUGUUACAUAAACCUAUUGUUUGGCAUGUUAACAAU	-0.915	-0.197	-0.895	-0.663
AUUGUUCAACUUAGUGAAAUUAGUAUGGACAAU	0.851	0.243	0.606	-0.828
AUUGUUGUCGCUUCCAAGAAAAGGACGAAGAUGACAAU [DMSMaPseq_invitro_SARS-CoV-2_Motif_245]	0.287	-0.272	-0.00678	-0.371
AUUUGAACUCUACUAAUGUCACUAUUGCAACCUACUGUACUGGUUCUAUACCUUGUAGUGUUUGUCUUAGUGGUUUAGAU	-0.873	-0.244	-1.06	-0.913
AUUUUUCUAAACUGAUAAAU [DMSMaPseq_invitro_SARS-CoV-2_Motif_131]	-0.374	-0.194	-0.771	-1.08
CAAAUGUGCCUUUCAACUCUCAUGAAGUGUGAUCAUUGUGGUGAAACUUCAUGGCAGACGGGCGAUUUUG	-0.685	-0.412	-0.576	0.555
CAACAAAAGUUG [SHAPE_invivo_SARS-CoV-2_Motif_413]	-0.893	-0.787	-1.44	-1.52
CAACAAUGUGUGAUAUCAGACAACUACUAUUUGUAGUUGAAGUUGUUG	-0.133	0.0207	-0.104	-0.217
CAACCUAAAUAGAGGUAUG	-0.399	-0.292	-0.716	-0.591
CAACGGUACUAUUACCGUUG	-0.275	-0.426	-0.553	-1.59
CAACGUAAGUUG [DMSMaPseq_invitro_SARS-CoV-2_Motif_215]	-0.34	-0.477	-0.732	-1.6
CAACUCUCAUGAAGUGUGAUCAUUGUGGUGAAACUUCAUGGCAGACGGGCGAUUUUGUUAAAGCCACUUGCGAAUUUUG	-0.573	-0.197	-0.161	0.0444
